Results published in patent US20170247677A1.

Key:
Factor Va = Factor Va (UniProt P12259)
FXa^I16T (human) = FXa^I16T (human) (UniProt P00742); test: cell-based or functional assay
FXa^V17S (human) = FXa^V17S (human) (UniProt P00742); test: cell-based or functional assay
[1] = biological target: wild-type Factor Xa (human) (UniProt P00742); test: cell-based or functional assay
FXa^V17T (human) = FXa^V17T (human) (UniProt P00742); test: cell-based or functional assay
FXa^I16M (human) = FXa^I16M (human) (UniProt P00742); test: cell-based or functional assay
FXa^V17M (human) = FXa^V17M (human) (UniProt P00742); test: cell-based or functional assay

UniProt P12259, sequence (P12259 29-2224): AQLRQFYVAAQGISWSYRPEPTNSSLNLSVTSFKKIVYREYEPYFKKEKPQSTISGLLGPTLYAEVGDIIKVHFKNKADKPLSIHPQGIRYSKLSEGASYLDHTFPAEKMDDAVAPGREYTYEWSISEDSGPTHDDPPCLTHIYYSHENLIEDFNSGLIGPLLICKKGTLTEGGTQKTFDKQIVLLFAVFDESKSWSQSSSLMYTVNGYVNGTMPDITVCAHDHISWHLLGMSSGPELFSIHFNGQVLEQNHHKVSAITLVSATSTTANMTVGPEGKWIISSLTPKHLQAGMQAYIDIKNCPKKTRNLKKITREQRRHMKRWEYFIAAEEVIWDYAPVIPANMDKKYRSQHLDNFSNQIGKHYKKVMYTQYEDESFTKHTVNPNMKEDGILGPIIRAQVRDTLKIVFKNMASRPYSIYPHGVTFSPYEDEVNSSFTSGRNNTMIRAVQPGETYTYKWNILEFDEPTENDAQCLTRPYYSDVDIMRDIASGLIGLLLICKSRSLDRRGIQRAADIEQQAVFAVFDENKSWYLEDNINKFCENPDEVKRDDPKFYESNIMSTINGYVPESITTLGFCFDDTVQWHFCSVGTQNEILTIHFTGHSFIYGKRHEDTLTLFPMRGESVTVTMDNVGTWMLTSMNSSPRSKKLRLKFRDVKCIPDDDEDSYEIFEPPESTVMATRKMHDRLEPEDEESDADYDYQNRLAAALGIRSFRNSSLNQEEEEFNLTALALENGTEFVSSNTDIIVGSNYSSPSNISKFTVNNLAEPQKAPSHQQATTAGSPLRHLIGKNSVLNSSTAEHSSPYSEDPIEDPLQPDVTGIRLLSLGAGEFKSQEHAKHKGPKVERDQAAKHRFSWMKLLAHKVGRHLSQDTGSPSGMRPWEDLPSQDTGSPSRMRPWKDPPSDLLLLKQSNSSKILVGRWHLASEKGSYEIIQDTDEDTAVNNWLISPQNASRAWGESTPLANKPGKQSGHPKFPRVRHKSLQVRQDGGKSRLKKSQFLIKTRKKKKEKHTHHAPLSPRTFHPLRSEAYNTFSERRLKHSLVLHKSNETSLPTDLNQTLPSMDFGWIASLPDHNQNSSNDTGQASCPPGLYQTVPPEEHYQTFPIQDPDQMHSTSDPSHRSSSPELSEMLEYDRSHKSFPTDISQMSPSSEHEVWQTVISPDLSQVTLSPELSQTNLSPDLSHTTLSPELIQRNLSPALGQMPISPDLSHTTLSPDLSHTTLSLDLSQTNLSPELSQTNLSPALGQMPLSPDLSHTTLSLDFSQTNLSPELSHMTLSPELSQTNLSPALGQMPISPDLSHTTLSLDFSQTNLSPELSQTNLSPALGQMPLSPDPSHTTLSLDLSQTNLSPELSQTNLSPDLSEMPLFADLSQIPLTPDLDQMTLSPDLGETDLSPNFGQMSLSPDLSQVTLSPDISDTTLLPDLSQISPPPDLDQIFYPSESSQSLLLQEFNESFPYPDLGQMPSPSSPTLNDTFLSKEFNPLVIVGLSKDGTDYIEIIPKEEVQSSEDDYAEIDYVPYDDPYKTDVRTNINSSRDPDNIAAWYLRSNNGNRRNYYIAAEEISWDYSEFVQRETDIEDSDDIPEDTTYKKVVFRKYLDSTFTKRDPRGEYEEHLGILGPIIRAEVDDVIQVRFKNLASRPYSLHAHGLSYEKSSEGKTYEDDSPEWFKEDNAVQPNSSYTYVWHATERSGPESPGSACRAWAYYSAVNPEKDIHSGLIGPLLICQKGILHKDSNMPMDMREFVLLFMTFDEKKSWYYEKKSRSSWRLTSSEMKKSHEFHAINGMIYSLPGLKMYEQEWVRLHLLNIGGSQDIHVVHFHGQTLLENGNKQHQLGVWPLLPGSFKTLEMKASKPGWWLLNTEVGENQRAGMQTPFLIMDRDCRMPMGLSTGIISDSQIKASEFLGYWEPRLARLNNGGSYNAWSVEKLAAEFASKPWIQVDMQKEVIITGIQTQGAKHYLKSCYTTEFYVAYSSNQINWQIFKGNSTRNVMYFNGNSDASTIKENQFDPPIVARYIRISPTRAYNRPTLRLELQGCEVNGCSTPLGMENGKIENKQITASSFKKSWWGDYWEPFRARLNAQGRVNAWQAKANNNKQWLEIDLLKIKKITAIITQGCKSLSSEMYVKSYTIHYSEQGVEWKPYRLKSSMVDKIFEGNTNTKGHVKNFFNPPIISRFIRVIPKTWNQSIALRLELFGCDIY

FXa^I16L was tested, and the “kinetics of prothrombin activation in the presence of FVa and anionic membranes (PCPS)” value (shortened to “kinetics of prothrombin activation”) (Factor Va) was “demonstrated faster than wild-type kinetics”.
With FXa^V17M the “kinetics of prothrombin activation” value (Factor Va) was “demonstrated faster than wild-type kinetics”.
Work on “antithrombin III (from UniProt P01008 33-464)” yielded a Fold Difference (rate constant for inhibition by antithrombin, against wtFXa) (FXa^I16T (human)) of over 100 fold, a Fold Difference (rate constant for inhibition by antithrombin, against wtFXa) (FXa^V17S (human)) of over 100 fold and a Fold Difference (rate constant for inhibition by antithrombin, against wtFXa) [1] of 1 fold. For the same substance, the Fold Difference (rate constant for inhibition by antithrombin, against wtFXa) (FXa^V17T (human)) was 70 fold, the Fold Difference (rate constant for inhibition by antithrombin, against wtFXa) (FXa^I16M (human)) was 40 fold and the Fold Difference (rate constant for inhibition by antithrombin, against wtFXa) (FXa^V17M (human)) was 14 fold.
For FXa^I16M, the “kinetics of prothrombin activation” value (Factor Va) was “displayed similar to wild-type kinetics”.
